The data set concerns the molecule itself. Briefly: cryo-EM structure.

B1: TRPV5 Thr709Asp phosphomimetic mutant (rabbit) (natural protein)
chain: MGACPPKAKGPWAQLQKLLISWPVGEQDWEQYRDRVNMLQQERIRDSPLLQAAKENDLRLLKILLLNQSCDFQQRGAVGETALHVAALYDNLEAATLLMEAAPELAKEPALCEPFVGQTALHIAVMNQNLNLVRALLARGASVSARATGAAFRRSPHNLIYYGEHPLSFAACVGSEEIVRLLIEHGADIRAQDSLGNTVLHILILQPNKTFACQMYNLLLSYDEHSDHLQSLELVPNHQGLTPFKLAGVEGNTVMFQHLMQKRKHVQWTCGPLTSTLYDLTEIDSWGEELSFLELVVSSKKREARQILEQTPVKELVSFKWKKYGRPYFCVLASLYILYMICFTTCCIYRPLKLRDDNRTDPRDITILQQKLLQEAYVTHQDNIRLVGELVTVTGAVIILLLEIPDIFRVGASRYFGQTILGGPFHVIIITYASLVLLTMVMRLTNMNGEVVPLSFALVLGWCSVMYFARGFQMLGPFTIMIQKMIFGDLMRFCWLMAVVILGFASAFHITFQTEDPNNLGEFSDYPTALFSTFELFLTIIDGPANYSVDLPFMYCITYAAFAIIATLLMLNLFIAMMGDTHWRVAQERDELWRAQVVATTVMLERKMPRFLWPRSGICGYEYGLGDRWFLRVENHHDQNPLRVLRYVEAFKCSDKEDGQEQLSEKRPSTVESGMLSRASVAFQTPSLSRTTSQSSNSHRGWEILRRNDLGHLNLGLDLGEGDGEEVYHF
Regarding B1, the binding result is “binds”.

The values are drawn from paper PMC9088182 (Cell reports, 2022).
